The data set deals with T1, STAT-1alpha wild type (transfected in U3A cells) (Homo sapiens) (UniProt P42224).
T1 sequence: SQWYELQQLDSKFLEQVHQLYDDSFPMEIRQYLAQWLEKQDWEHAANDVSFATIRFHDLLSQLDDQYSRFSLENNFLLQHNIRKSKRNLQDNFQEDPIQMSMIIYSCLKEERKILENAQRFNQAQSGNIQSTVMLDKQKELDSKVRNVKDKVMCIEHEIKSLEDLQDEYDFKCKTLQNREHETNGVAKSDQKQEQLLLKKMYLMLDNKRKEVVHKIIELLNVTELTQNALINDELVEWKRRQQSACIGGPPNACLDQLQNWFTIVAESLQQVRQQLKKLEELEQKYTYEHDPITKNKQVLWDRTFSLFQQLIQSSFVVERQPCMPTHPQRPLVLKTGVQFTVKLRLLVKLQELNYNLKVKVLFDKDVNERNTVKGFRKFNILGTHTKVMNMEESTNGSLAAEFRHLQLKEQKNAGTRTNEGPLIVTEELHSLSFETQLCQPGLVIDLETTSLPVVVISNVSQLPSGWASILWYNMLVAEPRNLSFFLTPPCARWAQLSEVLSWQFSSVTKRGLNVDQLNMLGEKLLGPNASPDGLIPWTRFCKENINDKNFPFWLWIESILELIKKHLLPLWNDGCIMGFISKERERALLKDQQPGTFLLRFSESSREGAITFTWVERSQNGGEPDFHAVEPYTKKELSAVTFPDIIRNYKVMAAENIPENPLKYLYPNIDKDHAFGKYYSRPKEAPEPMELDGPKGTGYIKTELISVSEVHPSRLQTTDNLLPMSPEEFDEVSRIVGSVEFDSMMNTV
Description: cell_activity. The following applies: luciferase reporter in U3A cells, IFN-gamma 5 ng/ml 10 h. (A reporter such as luciferase makes a cellular process visible.)

Consider “GATCAGTTCCCGTCAATCNATGATCCAGTTCCCGTCAATGATCCCCGGGATC (double strand) [tandem weak c-fos STAT-1 sites reporter enhancer]”, for which the activity (fold induction) worked out at 2.

(Values after US6312887.)
